Results from patent US20220281931A1 (published 2022).

B1: SIAH1^SBD (tag-cleaved) (enzyme)
chain: VANSVLFPCKYASSGCEITLPHTEKADHEELCEFRPYSCPCPGASCKWQGSLDAVMPHLMHQHKSITTLQGEDIVFLATDINLPGAVDWVMMQSCFGFHFMLVLEKQEKYDGHQQFFAIVQLIGTRKQAENFAYRLELNGHRRRLTWEATPRSIHEGIATAIMNSDCLVFDTSIAQLFAENGNLGINVTISMC

Tests used:
SIAH1^SBD (tag-cleaved) = molecular target: B1; experiment: ITC
BCL6^5-360 (ITC) = BCL6^5-360 (ITC) (UniProt P41182 5-360); experiment: ITC; also printed as Kd = 1.6 uM

Row | Kd (SIAH1^SBD (tag-cleaved)) [µM] | Kd (BCL6^5-360 (ITC)) [µM] | Binder
1 | 6.3 |  | EYSRPTLEVSPNVCHSNIYS [BCL6^241-260 peptide]
2 |  | 1.57 | B1
